Test [1] concerns the target Transforming growth factor-β1 (UniProt P01137). The experiment in a line: 125I-TGF-β1 (50 pM) binding to MvLu1 cells with concentrated supernatant of PIPLC treated HaCaT cells, dose 2.
Test [2] shares this target. Put plainly: 125I-TGF-β1 (50 pM) binding to MvLu1 cells with concentrated supernatant of untreated HaCaT cells (r150 released by an endogenous phospholipase), dose 2.
Test [3] has the same target. Put plainly: 125I-TGF-β1 (50 pM) binding to MvLu1 cells with concentrated supernatant of PIPLC treated HaCaT cells, dose 1 (one T-25 flask, about 1x10^6 cells).
The target is the same in test [4]. Put plainly: 125I-TGF-β1 (50 pM) binding to MvLu1 cells with concentrated supernatant of untreated HaCaT cells (r150 released by an endogenous phospholipase), dose 1.
The target of test [5] is r150, 150 kDa GPI-anchored TGF-β1 binding protein (membrane anchored form) (human) (UniProt Q6YHK3). Put plainly: competition of unlabeled TGF-β3 with 125I-TGF-β1 on keratinocytes, affinity cross-link labeling, densitometry.
r150, 150 kDa GPI-anchored TGF-β1 binding protein (membrane anchored form) (human), sequence (Q6YHK3 other isoform, or with tags, fused parts or gaps limits assumed): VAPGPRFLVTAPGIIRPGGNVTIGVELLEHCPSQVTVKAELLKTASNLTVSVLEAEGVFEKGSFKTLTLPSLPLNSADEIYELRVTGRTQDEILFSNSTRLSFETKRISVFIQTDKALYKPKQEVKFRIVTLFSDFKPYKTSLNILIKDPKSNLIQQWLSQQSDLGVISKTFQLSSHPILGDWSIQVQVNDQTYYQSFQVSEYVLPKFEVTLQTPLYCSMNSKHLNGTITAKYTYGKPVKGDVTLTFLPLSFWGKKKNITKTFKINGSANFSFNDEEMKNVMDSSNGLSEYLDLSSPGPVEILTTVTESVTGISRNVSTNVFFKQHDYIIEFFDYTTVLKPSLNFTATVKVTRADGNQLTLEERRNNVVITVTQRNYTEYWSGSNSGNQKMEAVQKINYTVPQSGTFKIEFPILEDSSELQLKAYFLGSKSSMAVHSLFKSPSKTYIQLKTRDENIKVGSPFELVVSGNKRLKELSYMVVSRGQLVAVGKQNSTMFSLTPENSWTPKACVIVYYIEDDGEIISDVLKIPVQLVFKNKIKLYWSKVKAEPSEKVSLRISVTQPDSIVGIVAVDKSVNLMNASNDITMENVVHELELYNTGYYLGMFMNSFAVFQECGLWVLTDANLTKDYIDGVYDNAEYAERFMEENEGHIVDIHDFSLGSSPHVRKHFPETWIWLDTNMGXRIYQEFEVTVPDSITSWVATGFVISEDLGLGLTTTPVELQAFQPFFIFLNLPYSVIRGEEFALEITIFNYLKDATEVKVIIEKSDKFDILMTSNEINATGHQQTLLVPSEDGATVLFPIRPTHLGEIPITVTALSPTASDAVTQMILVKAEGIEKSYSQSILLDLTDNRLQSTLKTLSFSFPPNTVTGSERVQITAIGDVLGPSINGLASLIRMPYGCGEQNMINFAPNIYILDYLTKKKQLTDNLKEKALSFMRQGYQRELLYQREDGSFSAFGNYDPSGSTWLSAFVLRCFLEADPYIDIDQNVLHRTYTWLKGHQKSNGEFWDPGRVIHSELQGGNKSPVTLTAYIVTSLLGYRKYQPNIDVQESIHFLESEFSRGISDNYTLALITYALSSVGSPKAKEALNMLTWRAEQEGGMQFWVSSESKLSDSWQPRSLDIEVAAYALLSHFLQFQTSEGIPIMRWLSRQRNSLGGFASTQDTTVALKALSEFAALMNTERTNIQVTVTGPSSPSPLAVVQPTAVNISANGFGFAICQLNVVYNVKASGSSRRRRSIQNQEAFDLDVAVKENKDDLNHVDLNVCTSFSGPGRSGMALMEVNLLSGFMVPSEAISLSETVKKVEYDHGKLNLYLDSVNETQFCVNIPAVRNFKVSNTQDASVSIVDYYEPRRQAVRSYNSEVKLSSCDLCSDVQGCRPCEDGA

Transforming growth factor-β1, sequence (P01137 279-390 limits assumed): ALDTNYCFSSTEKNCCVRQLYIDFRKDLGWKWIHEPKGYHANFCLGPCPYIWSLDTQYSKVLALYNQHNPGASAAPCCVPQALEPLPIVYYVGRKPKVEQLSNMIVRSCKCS

For “soluble r150 (released from the cell surface by PIPLC or by an endogenous phospholipase C) (from UniProt Q6YHK3 22-1420) (receptor)”, the percent inhibition of 125I-TGF-β1 binding to MvLu1 cells in test [1] is 50%; in test [2], 31%; in test [3] it was 33%; in test [4] it was 15%.
For the substance “Transforming growth factor-β3 (from UniProt P10600 301-412) (ligand)”, the ratio of the concentration for half-maximal inhibition of 125I-TGF-β1 binding, r150 against the types I or II receptors in test [5] was determined as 6 fold.

The record behind these values is patent US20040191860A1.
